This is an account of results in the supplement of paper PMC10126150.

For this data set, the system named is ATP. Nature of the data set: switch fluorescence ratio, 500 uM ATP over buffer (Cy3 cluster intensity, sum of 5 cycles each) (fold (ratio)); higher = stronger signal-on switching upon ATP binding; sequences stand for … in TCGTCGGCAGCGTCAGATGTGTATAAGAGACAGTTTTTTTTTTTTTTTTTTTTTTTTT…TC. Conditions: aptamer strand: ATP DNA aptamer (quencher-CACCTGGGGGAGTATTGCGGAGGAAGG + anchor), 100 nM annealed; ATP concentration: 500 uM. A digest of the protocol:
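Values give the fluorescence ratio for each switch-domain sequence, averaged from per-cluster ratios of summed target-cycle to summed buffer-cycle Cy3 intensity. The Cy3-labelled switching-strand clusters sat on a modified Illumina MiSeq flow-cell, were annealed to 100 nM quencher-labelled ATP aptamer, and were imaged in selection buffer, then after 15 min with 500 uM ATP at 22 °C. Five cycles ran with NaOH stripping and re-annealing between them, and clusters outside 100-1000 RFU were excluded.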

± gives the standard deviation of the averaged measurements.
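Note: ATP exposure 15 min at 22 °C before imaging.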

TTTGGCCGTT: the switch fluorescence ratio was found to be 1.2 ± 0.26.
For TTTGGCCTAC, the switch fluorescence ratio was 1.01 ± 0.02.
For TTTGGCTACG, the switch fluorescence ratio stood at 1.01 ± 0.011.
In the case of TTTGGCTGAA, the switch fluorescence ratio is 1.01 ± 0.019.
For TTTGGCTTAG, the switch fluorescence ratio was determined as 0.991 ± 0.029.
In the case of TTTGGCTTGC, the switch fluorescence ratio was 1.01 ± 0.042.
On to TTTGGCTTTC, for which the switch fluorescence ratio is 1.06 ± 0.016.
As to TTTGGGAACT, the switch fluorescence ratio was determined as 1 ± 0.021.
Take TTTGGGACGC: the switch fluorescence ratio is 1.05 ± 0.088.
The value for TTTGGGAGTG was 0.965 ± 0.037.
With TTTGGGATGC, the switch fluorescence ratio was 1.07 ± 0.095.
The value for TTTGGGATGT was 1.02 ± 0.073; that for TTTGGGCCGC was 1.06 ± 0.05; that for TTTGGGCGGT was 1.04 ± 0.12.
In the case of TTTGGGCTCC, the switch fluorescence ratio came to 0.98 ± 0.018.
Take TTTGGGGCTA: the switch fluorescence ratio turned out to be 1.05 ± 0.15.
For TTTGGGGGAA, the switch fluorescence ratio is 0.994 ± 0.046.
As to TTTGGGGGG, the switch fluorescence ratio amounted to 1.05 ± 0.046.
On to TTTGGGGTAG, for which the switch fluorescence ratio was found to be 0.977 ± 0.015.
Consider TTTGGGGTCA, for which the switch fluorescence ratio is 1 ± 0.016.
Consider TTTGGGGTG, for which the switch fluorescence ratio amounted to 1.04 ± 0.022.
For TTTGGGTAAA, the switch fluorescence ratio came out at 1.02 ± 0.032.
On to TTTGGGTATC, for which the switch fluorescence ratio was found to be 0.982 ± 0.041.
As for TTTGGGTGCG, the switch fluorescence ratio is 0.998 ± 0.04.
With TTTGGTAGCT, the switch fluorescence ratio was found to be 0.9596 ± 0.0037.
As for TTTGGTATGA, the switch fluorescence ratio worked out at 0.9736 ± 0.0021.
Turning to TTTGGTATGG, the switch fluorescence ratio is 0.997 ± 0.015.
The value for TTTGGTATGT was 1.03 ± 0.057; that for TTTGGTATTT was 0.984 ± 0.025; that for TTTGGTCGTG was 1.042 ± 0.0036.
As for TTTGGTGACT, the switch fluorescence ratio was 1.018 ± 0.0063.
As to TTTGGTGATT, the switch fluorescence ratio was determined as 0.982 ± 0.025.
Regarding TTTGGTGCGG, the switch fluorescence ratio was 0.985 ± 0.01.
For the sequence TTTGGTGGCA, the switch fluorescence ratio stood at 0.9992 ± 0.0099.
Take TTTGGTGGGA: the switch fluorescence ratio was 0.972 ± 0.026.
With TTTGGTGGGT, the switch fluorescence ratio worked out at 0.975 ± 0.012.
As for TTTGGTGGTT, the switch fluorescence ratio amounted to 1.03 ± 0.059.
As to TTTGGTGTTG, the switch fluorescence ratio amounted to 0.987 ± 0.022.
The value for TTTGGTTCTC was 0.977 ± 0.012; that for TTTGGTTGT was 0.972 ± 0.013.
The value for TTTGGTTGTG was 0.986 ± 0.018.
On to TTTGGTTTAT, for which the switch fluorescence ratio is 0.982 ± 0.04.
Turning to TTTGGTTTCC, the switch fluorescence ratio was 1.01 ± 0.053.
For the sequence TTTGGTTTGC, the switch fluorescence ratio worked out at 0.992 ± 0.0039.
With TTTGTAAATT, the switch fluorescence ratio was 1 ± 0.018.
With TTTGTAACAC the figure was 1.25 ± 0.36; with TTTGTAATGG, 1.08 ± 0.14; with TTTGTAGAGC, 1.05 ± 0.063.
As for TTTGTAGCAC, the switch fluorescence ratio was determined as 1.31 ± 0.072.
With TTTGTAGGCA the figure was 0.989 ± 0.011.
With TTTGTAGTTT the figure was 1.03 ± 0.055; with TTTGTATGAG, 1.03 ± 0.025; with TTTGTATGGT, 0.976 ± 0.011.
On to TTTGTATTAG, for which the switch fluorescence ratio turned out to be 1 ± 0.028.
With TTTGTATTCG, the switch fluorescence ratio turned out to be 1.004 ± 0.0064.
TTTGTCAAGG: the switch fluorescence ratio turned out to be 1.02 ± 0.015.
For TTTGTCAGAT, the switch fluorescence ratio came out at 0.98 ± 0.013.
As for TTTGTCAGGT, the switch fluorescence ratio amounted to 0.9692 ± 0.0021.
Consider TTTGTCCCGT, for which the switch fluorescence ratio was found to be 0.98 ± 0.026.
As to TTTGTCGCTG, the switch fluorescence ratio was found to be 1.01 ± 0.038.
For the sequence TTTGTCTGAC, the switch fluorescence ratio was determined as 0.9946 ± 0.0028.
The value for TTTGTCTTGG was 0.972 ± 0.031.
In the case of TTTGTGAAAG, the switch fluorescence ratio was determined as 1.008 ± 0.006.
In the case of TTTGTGAGGT, the switch fluorescence ratio stood at 1.01 ± 0.034.
With TTTGTGATG, the switch fluorescence ratio was 0.959 ± 0.027.
With TTTGTGATGG, the switch fluorescence ratio is 0.954 ± 0.026.
For TTTGTGCCTT, the switch fluorescence ratio amounted to 1.1 ± 0.12.
Consider TTTGTGGGGC, for which the switch fluorescence ratio was determined as 1.01 ± 0.042.
For the sequence TTTGTGGTAG, the switch fluorescence ratio was 0.984 ± 0.011.
Regarding TTTGTGGTCC, the switch fluorescence ratio was 0.98 ± 0.039.
As to TTTGTGTAGC, the switch fluorescence ratio is 1 ± 0.038.
TTTGTGTATA: the switch fluorescence ratio came to 0.976 ± 0.057.
As for TTTGTGTGTT, the switch fluorescence ratio was found to be 1.02 ± 0.024.
For TTTGTGTTAG, the switch fluorescence ratio turned out to be 0.9983 ± 0.0082.
TTTGTGTTTG: the switch fluorescence ratio stood at 0.999 ± 0.016.
With TTTGTTAATA the figure was 1.02 ± 0.014.
With TTTGTTACAG the figure was 1 ± 0.031.
As to TTTGTTACTT, the switch fluorescence ratio was determined as 1.01 ± 0.021.
TTTGTTATTT: the switch fluorescence ratio stood at 1.01 ± 0.023.
For the sequence TTTGTTCACG, the switch fluorescence ratio is 0.991 ± 0.01.
Turning to TTTGTTCCTC, the switch fluorescence ratio came out at 1.103 ± 0.005.
As to TTTGTTCGGC, the switch fluorescence ratio amounted to 1 ± 0.033.
The value for TTTGTTGTAC was 1.06 ± 0.058; that for TTTGTTGTTT was 0.986 ± 0.013; that for TTTGTTTCT was 0.968 ± 0.01.
Consider TTTGTTTGCT, for which the switch fluorescence ratio amounted to 0.989 ± 0.025.
The value for TTTGTTTTC was 1.02 ± 0.018; that for TTTGTTTTCT was 1.01 ± 0.032; that for TTTTAAAAAA was 1 ± 0.026.
With TTTTAAACGT the figure was 1.04 ± 0.039; with TTTTAAAGAT, 0.977 ± 0.021.
In the case of TTTTAAAGGG, the switch fluorescence ratio came out at 0.993 ± 0.045.
Turning to TTTTAAAGTC, the switch fluorescence ratio stood at 1.02 ± 0.03.
With TTTTAACAGG, the switch fluorescence ratio was 1.02 ± 0.08.
As to TTTTAACTCT, the switch fluorescence ratio came out at 1.05 ± 0.015.
With TTTTAACTGT the figure was 1.01 ± 0.038; with TTTTAAGGAA, 1.04 ± 0.071.
On to TTTTAAGGGA, for which the switch fluorescence ratio is 0.998 ± 0.014.
The value for TTTTAAGGGT was 0.999 ± 0.036.
The value for TTTTAATTCA was 1 ± 0.015; that for TTTTACCACT was 1.0422 ± 0.00058; that for TTTTACCCTT was 1.04 ± 0.04.
For TTTTACGCAG, the switch fluorescence ratio stood at 1.03 ± 0.044.
For the sequence TTTTACGGGG, the switch fluorescence ratio was determined as 1.02 ± 0.03.
Turning to TTTTACTGAG, the switch fluorescence ratio stood at 1.04 ± 0.025.
With TTTTACTTAC the figure was 1.25 ± 0.059.
As to TTTTAGAATT, the switch fluorescence ratio was 0.996 ± 0.013.
Consider TTTTAGACTG, for which the switch fluorescence ratio worked out at 1.05 ± 0.039.
On to TTTTAGAGTT, for which the switch fluorescence ratio came out at 0.982 ± 0.013.
Regarding TTTTAGCAGA, the switch fluorescence ratio was found to be 1.06 ± 0.016.
With TTTTAGCTTC the figure was 1.03 ± 0.017.
As for TTTTAGGAAT, the switch fluorescence ratio came to 0.997 ± 0.027.
With TTTTAGGAGT, the switch fluorescence ratio was 0.989 ± 0.037.
The value for TTTTAGGCCG was 1.03 ± 0.042; that for TTTTAGGGGC was 1.13 ± 0.23; that for TTTTAGGGTG was 1.07 ± 0.072.
TTTTAGGTGC: the switch fluorescence ratio came out at 1.09 ± 0.099.
With TTTTAGTCAT, the switch fluorescence ratio was 1.01 ± 0.014.
In the case of TTTTAGTGAC, the switch fluorescence ratio is 1.022 ± 0.0053.
TTTTAGTT: the switch fluorescence ratio was determined as 0.993 ± 0.039.
